Reference: patent US20090232804A1 (GLENMARK PHARMACEUTICALS S A, published 2009)
Several values for one entry are separate records, joined by “and”; a condition that tells them apart may be missing. Equal entries are not always repeated.

target: T1, purified human von Willebrand factor (vWF) (human, UniProt P04275 764-2813); experiment: cell-based or functional assay

Binder	EC50 (nM), platelet agglutination assay [nM]
humanized NMC-4 variant H14, L9 (IgG1) (antibody, V domains shown) VH: QVQLQESGPGLVKPSETLSLTCTVSGGSISDYGWDWIRQPPGKGLEWIGMIWGDGSTDYNPSLKSRVTISVDTSKNQFSLKLSSVTAADTAVYYCARDPADYGNYDYALDYWGQGTLVTVSS VL: DIQMTQSPSSLSASVGDRVTITCSASQDINKYLNWYQQKPGKAPKLLIYYTSSLHSGVPSRFSGSGSGTDFTLTISSLQPEDFATYYCQQYEKLPWTFGQGTKVEIK	0.13
humanized NMC-4 variant H13, L9 (IgG1) (antibody, V domains shown) VH: QVQLQESGPGLVKPSETLSLTCTVSGGSISDYGWDWIRQPPGKGLEWIGMIWGDGSTDYNSALKSRVTISVDTSKNQFSLKLSSVTAADTAVYYCARDPADYGNYDYALDYWGQGTLVTVSS VL: DIQMTQSPSSLSASVGDRVTITCSASQDINKYLNWYQQKPGKAPKLLIYYTSSLHSGVPSRFSGSGSGTDFTLTISSLQPEDFATYYCQQYEKLPWTFGQGTKVEIK	0.16
humanized NMC-4 variant H12, L9 (IgG1) (antibody, V domains shown) VH: QVQLQESGPGLVKPSETLSLTCTVSGGSISDYGVDWIRQPPGKGLEWIGMIWGDGSTDYNSALKSRVTISVDTSKNQFSLKLSSVTAADTAVYYCARDPADYGNYDYALDYWGQGTLVTVSS VL: DIQMTQSPSSLSASVGDRVTITCSASQDINKYLNWYQQKPGKAPKLLIYYTSSLHSGVPSRFSGSGSGTDFTLTISSLQPEDFATYYCQQYEKLPWTFGQGTKVEIK	0.29
humanized NMC-4 variant H13, L10 (IgG1) (antibody, V domains shown) VH: QVQLQESGPGLVKPSETLSLTCTVSGGSISDYGWDWIRQPPGKGLEWIGMIWGDGSTDYNSALKSRVTISVDTSKNQFSLKLSSVTAADTAVYYCARDPADYGNYDYALDYWGQGTLVTVSS VL: DIQMTQSPSSLSASVGDRVTITCQASQDISNYLNWYQQKPGKAPKLLIYYTSSLHSGVPSRFSGSGSGTDFTLTISSLQPEDFATYYCQQYEKLPWTFGQGTKVEIK	0.2
humanized NMC-4 variant H14, L10, IgG1 (antibody, V domains shown) VH: QVQLQESGPGLVKPSETLSLTCTVSGGSISDYGWDWIRQPPGKGLEWIGMIWGDGSTDYNPSLKSRVTISVDTSKNQFSLKLSSVTAADTAVYYCARDPADYGNYDYALDYWGQGTLVTVSS VL: DIQMTQSPSSLSASVGDRVTITCQASQDISNYLNWYQQKPGKAPKLLIYYTSSLHSGVPSRFSGSGSGTDFTLTISSLQPEDFATYYCQQYEKLPWTFGQGTKVEIK	0.22

target: T1, purified human von Willebrand factor …; experiment: cell-based or functional assay; remark: another data set of the same source

Binder	Platelet agglutination EC50, single experiment	Platelet agglutination EC50 mean value (from 2 independent expts.) [pM]
humanized NMC-4 variant H9L9 IgG4 (antibody, V domains shown) VH: QVQLQESGPGLVKPSETLSLTCTVSGFSLTDYGVDWIRQPPGKGLEWIGMIWGDGSTDYNSALKSRVTISVDTSKNQFSLKLSSVTAADTAVYYCARDPADYGNYDYALDYWGQGTLVTVSS VL: DIQMTQSPSSLSASVGDRVTITCSASQDINKYLNWYQQKPGKAPKLLIYYTSSLHSGVPSRFSGSGSGTDFTLTISSLQPEDFATYYCQQYEKLPWTFGQGTKVEIK	1300 pM and 1500 pM	1400
humanized NMC-4 variant H14-L10, IgG4 (antibody, V domains shown) VH: QVQLQESGPGLVKPSETLSLTCTVSGGSISDYGWDWIRQPPGKGLEWIGMIWGDGSTDYNPSLKSRVTISVDTSKNQFSLKLSSVTAADTAVYYCARDPADYGNYDYALDYWGQGTLVTVSS VL: DIQMTQSPSSLSASVGDRVTITCQASQDISNYLNWYQQKPGKAPKLLIYYTSSLHSGVPSRFSGSGSGTDFTLTISSLQPEDFATYYCQQYEKLPWTFGQGTKVEIK	2300 pM and 2000 pM	2150
humanized NMC-4 variant H14, L10, IgG1 (antibody, V domains shown) VH: QVQLQESGPGLVKPSETLSLTCTVSGGSISDYGWDWIRQPPGKGLEWIGMIWGDGSTDYNPSLKSRVTISVDTSKNQFSLKLSSVTAADTAVYYCARDPADYGNYDYALDYWGQGTLVTVSS VL: DIQMTQSPSSLSASVGDRVTITCQASQDISNYLNWYQQKPGKAPKLLIYYTSSLHSGVPSRFSGSGSGTDFTLTISSLQPEDFATYYCQQYEKLPWTFGQGTKVEIK	1100 pM and 1300 pM	1200

target: T1, purified human von Willebrand factor …; experiment: cell-based or functional assay; remark: another data set of the same source

Binder	EC50 [pM]
humanized NMC-4 variant H2, L4 (IgG1) (antibody, V domains shown) VH: QVQLQESGPGLVKPSETLSLTCTVSGFSLTDYGVDWIRQPPGKGLEWIGMIWGDGSTDYNSALKSRLTISKDNSKNQVSLKLSSVTAADTAVYYCVRDPADYGNYDYALDYWGQGTSLTVSS VL: DIQMTQSPSSLSASVGDRVTITCSASQDINKYLNWYQQKPGKAPKLLIFYTSSLHSGVPSRFSGSGSGTDYTLTISSLQPEDIATYYCQQYEKLPWTFGQGTKVEIK	140
humanized NMC-4 variant H2, L7 (IgG1) (antibody, V domains shown) VH: QVQLQESGPGLVKPSETLSLTCTVSGFSLTDYGVDWIRQPPGKGLEWIGMIWGDGSTDYNSALKSRLTISKDNSKNQVSLKLSSVTAADTAVYYCVRDPADYGNYDYALDYWGQGTSLTVSS VL: DIQMTQSPSSLSASVGDRVTITCSASQDINKYLNWYQQKPGKAVKLLIFYTSSLHSGVPSRFSGSGSGTDFTLTISSLQPEDIATYYCQQYEKLPWTFGQGTKVEIK	150
humanized NMC-4 variant H2, L6 (IgG1) (antibody, V domains shown) VH: QVQLQESGPGLVKPSETLSLTCTVSGFSLTDYGVDWIRQPPGKGLEWIGMIWGDGSTDYNSALKSRLTISKDNSKNQVSLKLSSVTAADTAVYYCVRDPADYGNYDYALDYWGQGTSLTVSS VL: DIQMTQSPSSLSASVGDRVTITCSASQDINKYLNWYQQKPGKAVKLLIYYTSSLHSGVPSRFSGSGSGTDYTLTISSLQPEDIATYYCQQYEKLPWTFGQGTKVEIK	140
humanized NMC-4 variant H9, L4 (IgG1) (antibody, V domains shown) VH: QVQLQESGPGLVKPSETLSLTCTVSGFSLTDYGVDWIRQPPGKGLEWIGMIWGDGSTDYNSALKSRVTISVDTSKNQFSLKLSSVTAADTAVYYCARDPADYGNYDYALDYWGQGTLVTVSS VL: DIQMTQSPSSLSASVGDRVTITCSASQDINKYLNWYQQKPGKAPKLLIFYTSSLHSGVPSRFSGSGSGTDYTLTISSLQPEDIATYYCQQYEKLPWTFGQGTKVEIK	110
humanized NMC-4 variant H9, L5 (IgG1) (antibody, V domains shown) VH: QVQLQESGPGLVKPSETLSLTCTVSGFSLTDYGVDWIRQPPGKGLEWIGMIWGDGSTDYNSALKSRVTISVDTSKNQFSLKLSSVTAADTAVYYCARDPADYGNYDYALDYWGQGTLVTVSS VL: DIQMTQSPSSLSASVGDRVTITCSASQDINKYLNWYQQKPGKAVKLLIFYTSSLHSGVPSRFSGSGSGTDYTLTISSLQPEDIATYYCQQYEKLPWTFGQGTKVEIK	140
humanized NMC-4 variant H7, L5 (IgG1) (antibody, V domains shown) VH: QVQLQESGPGLVKPSETLSLTCTVSGFSLTDYGVDWIRQPPGKGLEWIGMIWGDGSTDYNSALKSRLTISKDTSKNQVSLKLSSVTAADTAVYYCVRDPADYGNYDYALDYWGQGTSLTVSS VL: DIQMTQSPSSLSASVGDRVTITCSASQDINKYLNWYQQKPGKAVKLLIFYTSSLHSGVPSRFSGSGSGTDYTLTISSLQPEDIATYYCQQYEKLPWTFGQGTKVEIK	160
humanized NMC-4 variant H2, L5 (IgG1) (antibody, V domains shown) VH: QVQLQESGPGLVKPSETLSLTCTVSGFSLTDYGVDWIRQPPGKGLEWIGMIWGDGSTDYNSALKSRLTISKDNSKNQVSLKLSSVTAADTAVYYCVRDPADYGNYDYALDYWGQGTSLTVSS VL: DIQMTQSPSSLSASVGDRVTITCSASQDINKYLNWYQQKPGKAVKLLIFYTSSLHSGVPSRFSGSGSGTDYTLTISSLQPEDIATYYCQQYEKLPWTFGQGTKVEIK	130
humanized NMC-4 variant H5, L5 (IgG1) (antibody, V domains shown) VH: QVQLQESGPGLVKPSETLSLTCTVSGFSLTDYGVDWIRQPPGKGLEWIGMIWGDGSTDYNSALKSRVTISKDNSKNQVSLKLSSVTAADTAVYYCVRDPADYGNYDYALDYWGQGTSLTVSS VL: DIQMTQSPSSLSASVGDRVTITCSASQDINKYLNWYQQKPGKAVKLLIFYTSSLHSGVPSRFSGSGSGTDYTLTISSLQPEDIATYYCQQYEKLPWTFGQGTKVEIK	180
humanized NMC-4 variant H9, L8 (IgG1) (antibody, V domains shown) VH: QVQLQESGPGLVKPSETLSLTCTVSGFSLTDYGVDWIRQPPGKGLEWIGMIWGDGSTDYNSALKSRVTISVDTSKNQFSLKLSSVTAADTAVYYCARDPADYGNYDYALDYWGQGTLVTVSS VL: DIQMTQSPSSLSASVGDRVTITCSASQDINKYLNWYQQKPGKAPKLLIYYTSSLHSGVPSRFSGSGSGTDFTLTISSLQPEDIATYYCQQYEKLPWTFGQGTKVEIK	80
humanized NMC-4 variant H4, L5 (IgG1) (antibody, V domains shown) VH: QVQLQESGPGLVKPSETLSLTCTVSGFSLTDYGVDWIRQPPGKGLEWIGMIWGDGSTDYNSALKSRLTISKDNSKNQVSLKLSSVTAADTAVYYCARDPADYGNYDYALDYWGQGTSLTVSS VL: DIQMTQSPSSLSASVGDRVTITCSASQDINKYLNWYQQKPGKAVKLLIFYTSSLHSGVPSRFSGSGSGTDYTLTISSLQPEDIATYYCQQYEKLPWTFGQGTKVEIK	150
humanized NMC-4 variant H6, L5 (IgG1) (antibody, V domains shown) VH: QVQLQESGPGLVKPSETLSLTCTVSGFSLTDYGVDWIRQPPGKGLEWIGMIWGDGSTDYNSALKSRLTISVDNSKNQVSLKLSSVTAADTAVYYCVRDPADYGNYDYALDYWGQGTSLTVSS VL: DIQMTQSPSSLSASVGDRVTITCSASQDINKYLNWYQQKPGKAVKLLIFYTSSLHSGVPSRFSGSGSGTDYTLTISSLQPEDIATYYCQQYEKLPWTFGQGTKVEIK	180
humanized NMC-4 variant H9, L6 (IgG1) (antibody, V domains shown) VH: QVQLQESGPGLVKPSETLSLTCTVSGFSLTDYGVDWIRQPPGKGLEWIGMIWGDGSTDYNSALKSRVTISVDTSKNQFSLKLSSVTAADTAVYYCARDPADYGNYDYALDYWGQGTLVTVSS VL: DIQMTQSPSSLSASVGDRVTITCSASQDINKYLNWYQQKPGKAVKLLIYYTSSLHSGVPSRFSGSGSGTDYTLTISSLQPEDIATYYCQQYEKLPWTFGQGTKVEIK	130
humanized NMC-4 variant H9, L7 (IgG1) (antibody, V domains shown) VH: QVQLQESGPGLVKPSETLSLTCTVSGFSLTDYGVDWIRQPPGKGLEWIGMIWGDGSTDYNSALKSRVTISVDTSKNQFSLKLSSVTAADTAVYYCARDPADYGNYDYALDYWGQGTLVTVSS VL: DIQMTQSPSSLSASVGDRVTITCSASQDINKYLNWYQQKPGKAVKLLIFYTSSLHSGVPSRFSGSGSGTDFTLTISSLQPEDIATYYCQQYEKLPWTFGQGTKVEIK	110
